Legend:
[1] = biological target: T1, biotinylated human 20S proteasome (human, UniProt P60900 1-246; P25787 1-234; P25789 1-261; O14818 1-248; P28066 1-241; P25786 …); assay: BLI
[2] = biological target: T1, biotinylated human 20S proteasome; assay: BLI; remark: listed apart in the source

Binder	Kd [1] [nM]	koff [2] [s⁻¹]
PA26^YF (other) PPKRAALIQNLRDSYTETSSFAVIEEWAAGTLQEIEGIAKAAAEAHGVIRNSTYGRAQAEKSPEQLLGVLQRYQDLCHNVYCQAETIRTVIAIRIPEHKEADNLGVAVQHAVLKIIDELEIKTLGSGEKSGSGGAPTPIGMYALREYLSARSTVEDKLLGSVDAESGKTKGGSQSPSLLLELRQIDADFMLKVELATTHLSTMVRAVINAYLLNWKKLIQPRTGNLSYFT	0.22	0.00026
wild-type PA26 (T. brucei) (natural protein) PPKRAALIQNLRDSYTETSSFAVIEEWAAGTLQEIEGIAKAAAEAHGVIRNSTYGRAQAEKSPEQLLGVLQRYQDLCHNVYCQAETIRTVIAIRIPEHKEEDNLGVAVQHAVLKIIDELEIKTLGSGEKSGSGGAPTPIGMYALREYLSARSTVEDKLLGSVDAESGKTKGGSQSPSLLLELRQIDADFMLKVELATTHLSTMVRAVINAYLLNWKKLIQPRTGSDHMVS	0.1	0.00029
PA26^E102A-Opt5 (other) PPKRAALIQNLRDSYTETSSFAVIEEWAAGTLQEIEGIAKAAAEAHGVIRNSTYGRAQAEKSPEQLLGVLQRYQDLCHNVYCQAETIRTVIAIRIPEHKEADNLGVAVQHAVLKIIDELEIKTLGSGEKSGSGGAPTPIGMYALREYLSARSTVEDKLLGSVDAESGKTKGGSQSPSLLLELRQIDADFMLKVELATTHLSTMVRAVINAYLLNWKKLIQPRTGNLSYYT	–	0.00016

Source: article PMC8907193 (2022)
